Assay results: patent publication US20230226096A1 (Orna Therapeutics, Inc., priority 2020, published 2023)

B1: Malagasivirus B (nucleic acid)
DNA: CTTTATTTTCTTATGTAACTCTTCTTTTTAAGTTTTATTTTGCCTACTTGTGAGCTTATGCGGGACCACTGTCTTAGACAACCCCACATTTGTCATGAGTAAGTACACGCAACCATTACGATTACTTTTTAACCGTCTGACCTTTTGATAACAACTGAAGTTAGGCGTGAAACATGCATTTATACCAAAGTAGCCCCGCATTTCCCCACTACGGTGGGGGGGCTACCCTACTGGCTTTGGAACTGTAGCCATTATGTGTTGCCTGGCTTTCAGGATCTCACAACACAACAGTTCTCTCACAATGGAATATGGGTGAGATTGCAGTGACATGAACAAGTATCTAGTAGTACATAGACTCAAGCCTAGTTGCCTGCGGAACAACATGTGGTAACACATGCCCCAGGGTCCAAAAGACAAGGGTTAACAGCCCCTTCTAGGTGTCTGTGTGTGAAGAATACTTTAGTAGTGTTGTTATGATCTCACCTGTTAGTACAGAATGAGTATGGCTTGGTGAAGGATGTCCTACAGGTACCCATTATATGGATCTGAGTAGGAGACCACTAGTGGTGGCTTTACCGCCAGGTGAGTGGTTTAAAAAGCGTCTAGCCAAGCCAACAGCACTAGGGATAGTGCTTTCTATATTTTATATTTTCAGTGTAT
modifications: Malagasivirus B
B2: PTV B (nucleic acid)
DNA: CTTCCTTTTAATTCGTAACTGATAAGTGATAGTCCTTGGAAGCTAGGTATTTGTTACGCTAGTTTTGGATTATCTTGTGCCCAACATTTGTTTTCGAACATATGTTGTGTTTAAACACAGAAATCTAGTTTCTTTGGTTATGAGTTTAATGGAATATCCTTTTGAAAGACTTGCCTTGGCGCGGGCTAGAGCGCAATTGTCACCAGGTATTGCACCAATGGTGGCGACAGGGTACAGAAGAGCAAGTACTCCTGACTGGGTAATGGGACTGCATTGCATATCCCTAGGCATCTATTGAGATTTCTCTGGAGCCCACCAGCATGGAGTTCCTGTATGGGAATGCAGGACTGGACTTGTGCTGCCTGACAGGGTCGCGGCTGGCCGTCTGTACTTTGTATAGTCAGTTGAAACTCATT
modifications: Teschovirus B
B3: SVV (nucleic acid)
DNA: CTGGGCCCTCATGCCCAGTCCTTCCTTTCCCCTTCCGGGGGGTAAACCGGCTGTGTTTGCTAGAGGCACAGAGGAGCAACATCCAACCTGCTTTTGTGGGGAACGGTGCGGCTCCAATTCCTGCGTCGCCAAAGGTGTTAGCGCACCCAAACGGCGCATCTACCAATGCTATTGGTGTGGTCTGCGAGTTCTAGCCTACTCGTTTCTCCCCTATCCACTCACTCACGCACAAAAAGTGTGCTGTAATTACAAGATTTAGCCCTCGCACGAGATGTGCGATAACCGCAAGATTGACTCAAGCGCGGAAAGCGCTGTAACCACATGCTGTTAGTCCCTTCATGGCTGCGAGATGGCTATCCACCTCGGATCACTGAACTGGAGCTCGACCCTCCTTAGTAAGGGAACCGAGAGGCCTTCTTGCAACAAGCTCCGACACAGAGTCCACGTGATTGCTACCACCATGAGTACATGGTTCTCCCCTCTCGACCCAGGACTTCTTTTTGAATATCCACGGCTCGATCCAGAGGGTGGGGCATGATCCCCCTAGCATAGCGAGCTACAGCGGGAACTGTAGCTAGGCCTTAGCGTGCCTTGGATACTGCCTGATAGGGCGACGGCCTAGTCGTGTCGGTTCTATAGGTAGCACATACAAAT
B4: Posavirus 1 (nucleic acid)
DNA: ACATTTCCTTGCGTGCGCACCCGAAAATTTATTGAACTTGGCTTGAATCATAAGTAATGCTTCTTATAGCGGACACTTTGAGAATATAATGCTTGTATGGATTAATGTATACTGTTTTAAATAACAAACCTAGACACGCAGTTGCGTTGATGGTTGTATCAATCACATATAAGTGTTGAACTCGTGTTAATCCTCGATCGCTATATGTTTGCCGCCTACTTCCAATAAAATAGATTACATGCGCGTCATGCCTTTGTGGGTTACCTATTGGCCTCTGACAAAAACAAGTCGTAAGATTTGTAGCTTCCCGGTGTAAAAAGCTGGGCGCGGTCTGGCTCTCGTAGGGTGGAAAGGTCCACCAATGGCTGGTTGAGTGTAAGCTCCGGTGTCCTGGTTGTCGCAATTCCAGGCGTCGTAATAACCTATATTGCATCTGACTCTAACTCTTGTGGCTCTACTGTATCTAGTTCTTGTTCTACTAACTCTAATAATACTACTGGCTCTAATACTGAAAAACTTACATATGTTAATATAGATAATATCCTTGATCCTGATATCCCTCACGTCACTGAAGTTCGCCGAAAACGAATTTCAGATCATATCATTGAATCTCAAGGATGTACTTGCTCTGAACCTACTATAACTCCTCATGCGTTTTCATTTTCTACTCTTGGC
B5: Tottorivirus (nucleic acid, listed as Tottorivirus sp.)
DNA: CCCCTTTACGTAACTGCAACTTAAAGAGTACCCTACTGCATTGGATGTGTGGTAAACTTTTACGCACACATTTGTAGTAGTGTTAGTTATGTTCTACCTAATGAGTATGCATGCACCCGTCGAAACACGCTTGTGATAAGATAGGTGAGTCCATGTGACTAATCTCATTAAGATAAATAAGCACCCTACAACGCACGGCACGCTCGTGTCTTCCGTGCGGGGCCGGGACAACAGCGGCCTAAATCTTCTAGGTGACCACCATGCTTTTGGGACTATGGCACCACTGTGGACGTGAGTACCTGGCAGTAAGTCTGTGAAAAGATGGAAGGTGTCCCAAGCTATGGGGCGTATGCATATAGCCTGCGGAACAAACAACGGCGACGTTGTCCCCAGGGCCCAAAAGGCACGTGGATAAGATCCACCTATATGTTTACCCCATAGTGTAAGTCACTGGAAGTCCTAGTAATGGATGTCTGGAGTAAGGCTCACGGGGTAGGGCGAAGGATGCCCAGAAGGTACCCGTAGGTAACCTTAAGAGACTATGGATCTGATCTGGGGACCGGATGGCGCCATCACCATGACGTGGAGGCCGGTTTAAAAAACGTCTAAGCCCGACCAACAACCTAGGGGACTAGGTTTTCCTTTTTTATTCATGTATGACGTT
B6: Mosavirus A2 SZAL6 (nucleic acid, listed as Mosavirus sp.)
DNA: CCCCCCCCTCAAATTGCAACGATATAGCTAATGGCGAGATTGAGATGCTATATCACCTCTTCTAAGTTATAGACCTCATCTGATTGATAAGGACGTAATTTGGTCGAAACCGCTTGGAATAAGACCGATGCGCGTAGTCATGATGATGATGTAAGATCTAGGAACTTATCCAATCTGCTTATGTCTATGTAAGTAGAGGGGCAGGCCTCATTGCCCTAATTCTTTCTACCGAGTATCTGCTAGGGTTTCTAGCGGCTTGAATACTTGGATTGAGGGATACAAGATACTACTGATCGATTGTCGATTGGGAAACTTGTAGATACTTCAAAGCTACCAGTAGCGTGGACTCACAGCCAGCGGACTACCCCTCATGGTAACATGAGCCTCTGGGCCCACAAGGCACGTCGCAAGACCTGTGAGACGGCAACCCCAGCCTAGCTTTGTTGAGGAAACAAGCGATAACATGACATGAGAGACCGGAAGGATTCTTGTATTGTGAGCCGAAGGATGGCCTCTAGGTACCTCATTTTATGAGATCTGAGGAGGTGCTCTTGAGTTGGTGCTTTACACTGACAACACAGAGTTAAAAAGCGTCTAAGCTCACCCGGAAATTGGGAAATTTCCGTTATTTCCATTTTGTTTGCAAAGTCGTTC
B7: PTV A (nucleic acid)
DNA: ACTAGTCCTTGGACTTTTGTTGTGTTTAAACACAGAAATTTAATTACCTGGCCATGAATTCATTGGATTAACCCTTCTGAAAGACTTGCTCTGGCGCGAGCTAAAGCGCAATTGTCACCAGGTATTGCACCAGTGGTGGCGACAGGGTACAGAAGAGCAAGTACTCCTGACCGGGCAATGGGACTGCATTGCATATCCCTAGGCACCTATTGAGATTTCTCTGGGGCCCACCGGCGTGGAGTTCCTGTATGGGAATGCAGGACTGGACTTGTGCTGCCTGACAGGGTCGCGGCTGGCCGTCTGTACTTTGTATAGTCAGTTGAAACTCACC
modifications: Teschovirus A

The molecules below were run on HEK293 cells. Settings: luminescence from secreted Gluc in supernatant 24 hours after transfection of HEK293 cells; circular RNA encoding Gluc with the named IRES (UTR truncated to 675 nt).
Format: cell-based, human

Molecule | Expression
B1 | 5.05E+06
B2 | 6.02E+06
B3 | 1.06E+06
B4 | 1.55E+06
B5 | 2.76E+07
B6 | 8.27E+06
B7 | 7.29E+05
